T1: Human Tissue Kallikrein 8 (hK8) (human, UniProt O60259 33-260)
T1 sequence (looked up): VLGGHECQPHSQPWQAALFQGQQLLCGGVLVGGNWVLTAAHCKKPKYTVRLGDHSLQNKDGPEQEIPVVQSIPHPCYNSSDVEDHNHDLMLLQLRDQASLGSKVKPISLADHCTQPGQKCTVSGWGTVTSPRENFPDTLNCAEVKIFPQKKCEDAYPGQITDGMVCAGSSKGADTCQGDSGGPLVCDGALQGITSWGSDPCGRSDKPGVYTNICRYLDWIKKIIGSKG

T2: Human elastase (human, UniProt P08246 30-247)
T2 construct: also called Human Neutrophil Elastase
T2 sequence (looked up): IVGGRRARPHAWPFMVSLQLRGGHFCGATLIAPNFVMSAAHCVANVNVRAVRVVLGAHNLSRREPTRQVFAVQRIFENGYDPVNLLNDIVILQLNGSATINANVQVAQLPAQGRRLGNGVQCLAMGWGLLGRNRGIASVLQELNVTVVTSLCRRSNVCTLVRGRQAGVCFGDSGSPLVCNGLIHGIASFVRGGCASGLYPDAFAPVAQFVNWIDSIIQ


What was measured:
[1] = biological target: T3, hK1 (human tissue kallikrein 1), recombinant (human, UniProt P06870 25-262); assay: enzyme inhibition, tight-binding analysis, noncompetitive; Fab
T3 construct: Expressed in P. pastoris from KLK1 cDNA and purified; enzymatically active; also called KLK1; Recombinant (Pichia) Kallikrein

[2] = biological target: T3, hK1 (human tissue kallikrein 1), …; assay: SPR, biotinylated hK1 on streptavidin chip; Fab 50 nM after DX-2300 50 nM (competitor DX-2300)
From the text: Epitope grouping by SPR. Biotinylated hK1 was captured on a streptavidin coated chip to a final ligand density of 88 RU. […] The signal at the end of the injection of the Fab alone is R2.

[3] = biological target: Human Tissue Kallikrein 4 (hK4) (human, UniProt Q9Y5K2 31-254); assay: protease inhibition assay, Fab up to 1 µM;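 also: protease and Fab preincubated 1 h at room temperature, then substrate added, fluorescence plate-reader monitoring of substrate hydrolysis rate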
Human Tissue Kallikrein 4 (hK4), sequence (Q9Y5K2 31-254 limits assumed): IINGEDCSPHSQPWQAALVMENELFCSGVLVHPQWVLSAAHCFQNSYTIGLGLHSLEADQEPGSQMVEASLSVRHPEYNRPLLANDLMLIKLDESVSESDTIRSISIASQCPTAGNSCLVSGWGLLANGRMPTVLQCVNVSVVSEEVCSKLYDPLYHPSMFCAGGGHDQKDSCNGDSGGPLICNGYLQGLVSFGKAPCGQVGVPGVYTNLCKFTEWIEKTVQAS
Method: (§1) Selected antibodies were tested for their ability to inhibit other proteases.
(§2) Assays were performed in black, 96 well, round bottomed microplates in a total volume of 100 μL. Enzyme and Fab inhibitor were incubated in the dark at room temperature for 1 hour prior to the addition of the indicated amount of substrate. The rate of enzymatic substrate hydrolysis was then monitored using the Spectramax Gemini XS fluorescence plate reader using the wavelengths listed in Table 3.

[4] = biological target: Human thrombin (human, UniProt P00734 328-622); assay: protease inhibition assay, Fab up to 1 µM;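 also: protease and Fab preincubated 1 h at room temperature, then substrate added, fluorescence plate-reader monitoring of substrate hydrolysis rate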
Method: as §1, §2

[5] = biological target: Human chymotrypsin (human, UniProt P17538 19-263); assay: protease inhibition assay, Fab up to 1 µM;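 also: protease and Fab preincubated 1 h at room temperature, then substrate added, fluorescence plate-reader monitoring of substrate hydrolysis rate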
Human chymotrypsin, sequence (P17538 19-263): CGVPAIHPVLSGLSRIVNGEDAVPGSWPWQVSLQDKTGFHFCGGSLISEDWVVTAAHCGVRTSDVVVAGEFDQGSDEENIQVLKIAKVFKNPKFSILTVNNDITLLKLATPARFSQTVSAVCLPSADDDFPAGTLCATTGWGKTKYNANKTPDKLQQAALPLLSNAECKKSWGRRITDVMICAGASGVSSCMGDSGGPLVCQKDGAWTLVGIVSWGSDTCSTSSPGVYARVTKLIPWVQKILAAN
Method: as §1, §2

[6] = biological target: T4, Human trypsin (human, UniProt P07477 24-247); assay: protease inhibition assay, Fab up to 1 µM;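 also: protease and Fab preincubated 1 h at room temperature, then substrate added, fluorescence plate-reader monitoring of substrate hydrolysis rate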
T4 construct: also called Human Pancreatic Trypsin
Method: as §1, §2

[7] = biological target: Human Tissue Kallikrein 2 (hK2) (human, UniProt P20151 25-261); assay: protease inhibition assay, Fab up to 1 µM
Human Tissue Kallikrein 2 (hK2), sequence (P20151 25-261 limits assumed): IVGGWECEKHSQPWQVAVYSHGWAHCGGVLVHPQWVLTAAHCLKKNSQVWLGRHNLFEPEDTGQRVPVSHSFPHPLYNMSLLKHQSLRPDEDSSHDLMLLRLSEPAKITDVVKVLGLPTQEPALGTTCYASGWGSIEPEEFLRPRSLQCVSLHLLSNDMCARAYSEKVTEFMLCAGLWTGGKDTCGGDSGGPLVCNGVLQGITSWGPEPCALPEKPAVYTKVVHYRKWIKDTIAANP
Method: as §1, §2

[8] = biological target: Human plasma kallikrein (human, UniProt P03952 20-638); assay: protease inhibition assay, Fab up to 1 µM
Human plasma kallikrein, sequence (P03952 20-638 limits assumed): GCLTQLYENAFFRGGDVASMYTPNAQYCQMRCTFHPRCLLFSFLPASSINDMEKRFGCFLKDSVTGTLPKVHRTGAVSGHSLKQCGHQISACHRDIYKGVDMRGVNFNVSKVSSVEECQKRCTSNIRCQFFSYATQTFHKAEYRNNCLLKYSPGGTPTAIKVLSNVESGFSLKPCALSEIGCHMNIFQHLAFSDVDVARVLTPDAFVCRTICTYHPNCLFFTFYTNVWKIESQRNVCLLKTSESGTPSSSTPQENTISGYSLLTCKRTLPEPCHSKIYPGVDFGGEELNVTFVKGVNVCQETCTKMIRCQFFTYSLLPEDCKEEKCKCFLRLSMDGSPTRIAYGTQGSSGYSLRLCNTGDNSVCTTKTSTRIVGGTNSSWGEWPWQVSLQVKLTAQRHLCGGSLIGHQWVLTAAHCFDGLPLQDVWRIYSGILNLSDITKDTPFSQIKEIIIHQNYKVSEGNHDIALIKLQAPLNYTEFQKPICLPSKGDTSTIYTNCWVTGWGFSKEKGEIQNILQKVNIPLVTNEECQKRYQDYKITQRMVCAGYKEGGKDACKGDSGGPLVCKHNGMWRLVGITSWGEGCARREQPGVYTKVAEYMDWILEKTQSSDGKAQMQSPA
Method: as §1, §2

[9] = biological target: T1, Human Tissue Kallikrein 8 (hK8); assay: protease inhibition assay, Fab up to 1 µM
Method: as §1, §2

[10] = biological target: Human plasmin (human, UniProt P00747 97-810); assay: protease inhibition assay, Fab up to 1 µM
Human plasmin, sequence (P00747 97-810 limits assumed): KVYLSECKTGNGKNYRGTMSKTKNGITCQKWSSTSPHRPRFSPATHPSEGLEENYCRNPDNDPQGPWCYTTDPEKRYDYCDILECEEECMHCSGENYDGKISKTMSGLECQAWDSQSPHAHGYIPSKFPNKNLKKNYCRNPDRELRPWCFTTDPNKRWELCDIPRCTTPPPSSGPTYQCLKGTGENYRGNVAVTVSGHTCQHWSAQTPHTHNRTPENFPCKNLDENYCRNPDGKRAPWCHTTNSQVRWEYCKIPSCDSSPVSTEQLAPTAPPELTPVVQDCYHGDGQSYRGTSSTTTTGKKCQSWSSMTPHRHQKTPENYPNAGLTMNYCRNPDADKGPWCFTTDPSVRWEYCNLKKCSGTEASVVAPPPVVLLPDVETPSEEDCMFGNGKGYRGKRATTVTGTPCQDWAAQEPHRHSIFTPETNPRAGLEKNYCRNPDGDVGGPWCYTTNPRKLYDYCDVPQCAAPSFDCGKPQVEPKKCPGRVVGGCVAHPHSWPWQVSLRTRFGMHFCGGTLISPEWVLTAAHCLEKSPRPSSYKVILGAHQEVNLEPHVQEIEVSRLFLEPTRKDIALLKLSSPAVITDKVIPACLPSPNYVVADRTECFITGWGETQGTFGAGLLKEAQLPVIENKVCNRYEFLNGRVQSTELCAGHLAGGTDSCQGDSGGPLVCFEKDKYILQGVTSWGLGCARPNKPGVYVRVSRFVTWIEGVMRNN
Method: as §1, §2

[11] = biological target: Human urokinase (human, UniProt P00749 21-431, limits assumed); assay: protease inhibition assay, Fab up to 1 µM
Method: as §1, §2

[12] = biological target: T2, Human elastase; assay: protease inhibition assay, Fab up to 1 µM
Method: as §1, §2

[13] = biological target: Human Tissue Kallikrein 3 (hK3, PSA) (human, UniProt P07288 25-261); assay: protease inhibition assay, Fab up to 1 µM
Human Tissue Kallikrein 3 (hK3, PSA), sequence (P07288 25-261 limits assumed): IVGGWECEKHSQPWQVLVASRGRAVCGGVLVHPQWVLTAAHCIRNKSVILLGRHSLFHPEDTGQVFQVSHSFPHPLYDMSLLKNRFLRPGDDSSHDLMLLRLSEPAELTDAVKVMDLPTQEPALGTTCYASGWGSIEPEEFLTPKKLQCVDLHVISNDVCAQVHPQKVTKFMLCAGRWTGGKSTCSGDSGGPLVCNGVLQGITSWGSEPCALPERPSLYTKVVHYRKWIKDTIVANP
Method: as §1, §2

[14] = biological target: Human Tissue Kallikrein 5 (hK5) (human, UniProt Q9Y337 67-293, limits assumed); assay: protease inhibition assay, Fab up to 1 µM
Human Tissue Kallikrein 5 (hK5), sequence (Q9Y337 67-293 limits assumed): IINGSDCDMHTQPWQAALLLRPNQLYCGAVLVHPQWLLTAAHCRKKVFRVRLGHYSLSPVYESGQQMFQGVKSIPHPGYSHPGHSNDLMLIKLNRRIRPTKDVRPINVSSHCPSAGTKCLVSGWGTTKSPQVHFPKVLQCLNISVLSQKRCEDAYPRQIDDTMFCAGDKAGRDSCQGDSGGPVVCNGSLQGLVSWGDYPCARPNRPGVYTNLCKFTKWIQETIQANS
Method: as §1, §2

[15] = biological target: T3, hK1 (human tissue kallikrein 1), …; assay: cell-based or functional assay
[16] = biological target: T3, hK1 (human tissue kallikrein 1), …; assay: SPR
[17] = biological target: T3, hK1 (human tissue kallikrein 1), …; assay: enzyme inhibition, tight-binding analysis, competitive; Fab
[18] = biological target: Human activated protein kinase C (human); assay: protease inhibition assay, Fab up to 1 µM
Human activated protein kinase C (human), sequence (P04070 43-197, chain 1 of 2): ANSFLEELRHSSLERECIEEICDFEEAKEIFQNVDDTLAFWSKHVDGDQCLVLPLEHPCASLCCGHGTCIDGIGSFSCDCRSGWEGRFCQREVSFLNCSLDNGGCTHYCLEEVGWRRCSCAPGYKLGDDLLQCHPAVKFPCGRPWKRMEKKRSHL
Human activated protein kinase C (human), sequence (P04070 212-461, chain 2 of 2): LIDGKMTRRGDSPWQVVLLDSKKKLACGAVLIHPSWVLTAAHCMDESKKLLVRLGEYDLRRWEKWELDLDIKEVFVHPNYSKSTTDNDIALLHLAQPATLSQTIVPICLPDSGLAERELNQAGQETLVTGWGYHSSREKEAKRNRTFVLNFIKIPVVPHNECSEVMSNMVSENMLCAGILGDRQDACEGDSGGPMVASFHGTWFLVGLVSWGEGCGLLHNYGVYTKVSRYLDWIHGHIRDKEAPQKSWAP
Method: as §1, §2

[19] = biological target: kallikrein-like activity in sheep urine (tissue kallikrein, K1) (sheep); assay: cell-based or functional assay

Fab Signal following DX-2300 (R1) [2]	Ki [3]	Ki [4]	Ki [5]	Ki [6]	Ki [7]	Ki [8]	Ki [9]	Ki [10]	Ki [11]	Ki [12]	Ki [13]	Ki [14]	IC50 (nM), inhibition of hK1 hydrolysis of Pro-Phe-Arg-AMC [15]	Kd [16]	koff [16]	kon [16]	Ki [18]	Binder	further results
5.9	> 1 µM	> 1 µM	> 1 µM	> 1 µM	> 1 µM	> 1 µM	> 1 µM	> 1 µM	> 1 µM	> 1 µM	> 1 µM	> 1 µM	2.5 nM	0.00466 µM	0.00279 s⁻¹	600000 M⁻¹ s⁻¹		M0093-F09 (Fab, V domains shown, also called M093-F09) VH: EVQLLESGGGLVQPGGSLRLSCAASGFTFSDYRMWWVRQAPGKGLEWVSYIVPSGGQTSYADSVKGRFTISRDNSKNTLYLQMNSLRAEDTAVYYCARGSAYQRRTYSSGWYSASGRRGTAEYFQHWGQGTLVTVSS VL: AQSALTQPASVSGSPGQSITISCTGTSTDDVGGYNYVSWYQQHPGKAPKLMIYDVINRPSGVSNRFSGSKSGNTASLTISGLQAEDEADYYCSSYTSRGTRVFGTGTKVTVLG	Ki [1]: 0.0019 µM
20.8	> 1 µM	> 1 µM	> 1 µM	> 1 µM	> 1 µM	> 1 µM	> 1 µM	> 1 µM	> 1 µM	> 1 µM	> 1 µM	> 1 µM	0.4 nM	0.00129 µM	0.000158 s⁻¹	123000 M⁻¹ s⁻¹	> 1 µM	M0137-E01 (Fab, V domains shown, also called M137-E01) VH: EVQLLESGGGLVQPGGSLRLSCAASGFTFSRYSMTWVRQAPGKGLEWVSSIYPSGGKTTYADSVKGRFTISRDNSKNTLYLQMNSLRAEDTAVYYCASMVAPYYYDSSGYPPAEYFQHWGQGTLVTVSS VL: AQSELTQPPSASGTPGQRVTISCSGTNSNIGSNSVFWYQQLSGTAAPKVLILRNSQRPSGVSDRFSGSKSGTSASLAISGLRSEDEADYYCATWDDSLRSPVFGGGTKLTVLG	Ki [17]: 0.0009 µM
																		DX-2300 (format not stated) (antibody, V domains shown) VH: EVQLLESGGGLVQPGGSLRLSCAASGFTFSKYKMVWVRQAPGKGLEWVSSIYPSGGITAYADSVKGRFTISRDNSKNTLYLQMNSLRAEDTAMYYCAKDITPGGGSGFRLPKNYYYYGMDVWGQGTTVTVSS VL: not shown	IC50 of kallikrein-like activity in activated urine (Pro-Phe-Arg-AMC) [19]: 0.0029 µM
	> 1 µM	> 1 µM	> 1 µM	> 1 µM	> 1 µM	> 1 µM	> 1 µM	> 1 µM	> 1 µM	> 1 µM	> 1 µM	> 1 µM					> 1 µM	DX-2300 (M0131-F07), Fab (Fab, V domains shown) VH: EVQLLESGGGLVQPGGSLRLSCAASGFTFSKYKMVWVRQAPGKGLEWVSSIYPSGGITAYADSVKGRFTISRDNSKNTLYLQMNSLRAEDTAMYYCAKDITPGGGSGFRLPKNYYYYGMDVWGQGTTVTVSS VL: not shown	

Reference: patent US7329737 (DYAX, dated 2008)
